The target of the assay is Recombinant human GCK (residues 16-465) fused to a N-terminal hexahistidine tag (human) (UniProt P35557).
Sequence of UniProt P35557 (P35557 16-465): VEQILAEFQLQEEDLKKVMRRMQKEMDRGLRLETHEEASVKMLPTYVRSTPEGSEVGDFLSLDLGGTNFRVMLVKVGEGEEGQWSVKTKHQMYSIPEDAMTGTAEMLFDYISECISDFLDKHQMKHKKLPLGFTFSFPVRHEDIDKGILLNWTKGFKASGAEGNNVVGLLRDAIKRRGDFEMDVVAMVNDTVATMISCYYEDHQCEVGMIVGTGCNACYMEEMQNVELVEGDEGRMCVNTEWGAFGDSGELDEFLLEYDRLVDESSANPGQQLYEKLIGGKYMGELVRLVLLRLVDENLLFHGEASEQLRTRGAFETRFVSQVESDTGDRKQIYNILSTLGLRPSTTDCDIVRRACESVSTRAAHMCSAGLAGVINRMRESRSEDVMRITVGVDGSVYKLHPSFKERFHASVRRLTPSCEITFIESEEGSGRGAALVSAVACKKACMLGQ

As for “Purified NS5A-D2 protein (amino acids 250 to 342) (domain or fragment)”, the maximum velocity (Vmax) of purified GCK, increase in the presence of NS5A-D2 was 31%.

The values are drawn from paper PMC8780509.
